Test system: peptide library, one residue held at a place counted from the S/T acceptor
Assay: relative phosphorylation of the sub-library (ratio to the mean residue at this position); higher = residue favoured
Outline: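 Relative sub-library phosphorylation, a ratio to the mean residue at that position, was obtained by phosphorimaging and densitometry of spots on streptavidin membranes. Before capture, purified recombinant kinases were incubated for 90 min under kinase-specific conditions with 50 μM biotinylated degenerate peptide sub-libraries and 50 μM ATP spiked with γ-32P-ATP. Each sub-library fixed one residue at one position around a central Ser/Thr.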

Chain of PDK1, construct: Full length, human (Q15118 whole entry, looked up): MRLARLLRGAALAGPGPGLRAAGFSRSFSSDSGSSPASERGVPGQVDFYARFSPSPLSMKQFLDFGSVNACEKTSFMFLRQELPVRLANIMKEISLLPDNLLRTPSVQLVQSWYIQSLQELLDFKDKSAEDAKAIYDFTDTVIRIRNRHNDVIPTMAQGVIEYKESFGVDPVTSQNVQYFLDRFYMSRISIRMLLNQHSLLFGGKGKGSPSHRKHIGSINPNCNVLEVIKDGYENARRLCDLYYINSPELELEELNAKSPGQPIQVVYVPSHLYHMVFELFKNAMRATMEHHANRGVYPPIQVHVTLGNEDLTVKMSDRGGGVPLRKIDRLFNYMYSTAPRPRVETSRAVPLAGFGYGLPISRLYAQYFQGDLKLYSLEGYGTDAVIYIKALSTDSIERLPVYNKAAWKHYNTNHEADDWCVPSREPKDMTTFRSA
Chain of NIM1K, construct: Full length, human (Q8IY84 whole entry, looked up): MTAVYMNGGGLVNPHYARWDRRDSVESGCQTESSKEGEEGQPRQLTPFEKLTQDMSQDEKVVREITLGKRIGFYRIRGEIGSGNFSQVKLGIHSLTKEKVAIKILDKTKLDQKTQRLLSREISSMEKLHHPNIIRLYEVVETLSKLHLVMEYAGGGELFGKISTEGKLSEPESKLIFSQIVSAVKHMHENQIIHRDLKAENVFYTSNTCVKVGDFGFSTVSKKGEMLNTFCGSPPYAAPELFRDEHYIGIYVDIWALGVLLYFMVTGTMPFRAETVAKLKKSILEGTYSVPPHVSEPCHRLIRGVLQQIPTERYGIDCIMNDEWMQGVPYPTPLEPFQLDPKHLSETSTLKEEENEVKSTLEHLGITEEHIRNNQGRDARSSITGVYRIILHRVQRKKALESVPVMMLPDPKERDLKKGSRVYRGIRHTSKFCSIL

NIM1K, construct: Full length, human (from UniProt Q8IY84)
relative phosphorylation
Settings | at +1 | at +2 | at +3 | at +4 | at -1 | at -2 | at -3 | at -4 | at -5
A fixed | 1.02 | 1.1 | 0.686 | 0.823 | 1.14 | 1.35 | 0.839 | 1.14 | 1.43
D fixed | 0.328 | 0.286 | 1.08 | 0.716 | 0.362 | 0.331 | 0.475 | 0.831 | 0.765
E fixed | 0.455 | 0.311 | 0.495 | 0.844 | 0.331 | 0.307 | 0.502 | 0.762 | 0.602
F fixed | 1.17 | 1.55 | 1.46 | 0.97 | 0.571 | 1.7 | 0.769 | 0.709 | 0.63
G fixed | 0.75 | 0.407 | 0.548 | 0.799 | 3.74 | 1.27 | 0.883 | 1.33 | 1.12
H fixed | 0.924 | 0.848 | 1.15 | 0.801 | 0.966 | 1.15 | 1.06 | 1.06 | 1.26
I fixed | 0.801 | 1.32 | 0.626 | 1.37 | 0.503 | 0.705 | 0.681 | 0.749 | 0.778
K fixed | 0.686 | 0.545 | 0.552 | 1.12 | 1.37 | 1.03 | 1.21 | 1.57 | 1.73
L fixed | 0.975 | 1.52 | 1.15 | 1.98 | 0.818 | 0.932 | 0.84 | 0.958 | 0.869
M fixed | 1.83 | 1.3 | 0.82 | 1.31 | 0.926 | 0.997 | 0.966 | 0.956 | 0.781
N fixed | 0.722 | 0.496 | 1.12 | 0.697 | 0.842 | 1.06 | 0.797 | 1.25 | 1.2
P fixed | 0.376 | 0.51 | 0.404 | 0.722 | 0.76 | 0.361 | 0.823 | 0.87 | 0.852
Q fixed | 2.16 | 0.607 | 0.549 | 0.795 | 1.05 | 0.737 | 0.887 | 0.935 | 0.868
R fixed | 1.05 | 0.633 | 0.666 | 1.24 | 1.44 | 1.38 | 3.47 | 1.41 | 1.41
V fixed | 1.2 | 1.48 | 0.645 | 1.42 | 0.693 | 0.888 | 0.872 | 0.712 | 0.917
W fixed | 1.16 | 2.06 | 3.85 | 0.717 | 0.709 | 1.7 | 0.97 | 0.863 | 1.04
Y fixed | 1.39 | 2.04 | 1.19 | 0.686 | 0.775 | 1.1 | 0.957 | 0.884 | 0.758
pThr fixed | 0.564 | 0.357 | 0.387 | 0.81 | 0.341 | 0.522 | 0.655 | 0.711 | 0.72
pTyr fixed | 0.365 | 0.345 | 0.367 | 0.644 | 0.459 | 0.475 | 0.619 | 0.629 | 0.543

RPS6KA5, construct: Full length, human (from UniProt O75582)
relative phosphorylation
Settings | at +1 | at +2 | at +3 | at +4 | at -1 | at -2 | at -3 | at -4 | at -5
A fixed | 0.772 | 0.9 | 0.834 | 0.825 | 0.783 | 0.787 | 0.718 | 0.981 | 1.04
D fixed | 0.723 | 2.19 | 1.3 | 1.63 | 0.877 | 0.316 | 0.294 | 0.639 | 0.65
E fixed | 0.84 | 1.43 | 1.27 | 1.62 | 0.544 | 0.306 | 0.314 | 0.757 | 0.597
F fixed | 1.44 | 0.986 | 1.12 | 0.863 | 0.767 | 0.4 | 0.352 | 0.778 | 0.91
G fixed | 0.633 | 0.826 | 0.988 | 1 | 0.855 | 0.675 | 0.499 | 1.31 | 1.18
H fixed | 1.04 | 1.59 | 1.35 | 1.23 | 1.16 | 1.06 | 1.18 | 1.18 | 1.03
I fixed | 1.48 | 0.676 | 0.738 | 0.713 | 0.435 | 0.272 | 0.286 | 0.694 | 0.779
K fixed | 0.616 | 0.436 | 0.674 | 0.588 | 1.57 | 1.8 | 1.18 | 1.34 | 1.2
L fixed | 1.32 | 0.95 | 1.09 | 0.777 | 1.07 | 0.444 | 0.293 | 0.807 | 1.03
M fixed | 1.49 | 0.781 | 0.981 | 0.788 | 1.04 | 0.445 | 0.39 | 1.07 | 0.962
N fixed | 0.976 | 1.27 | 0.92 | 1.2 | 1.42 | 0.693 | 0.51 | 0.909 | 0.81
P fixed | 0.292 | 0.581 | 0.98 | 1.5 | 1.63 | 0.367 | 0.588 | 1.1 | 0.923
Q fixed | 1.19 | 0.734 | 0.989 | 1.12 | 1.15 | 0.843 | 0.666 | 0.915 | 0.774
R fixed | 0.539 | 0.52 | 0.574 | 0.551 | 1.5 | 7.44 | 8.25 | 2.04 | 2.26
V fixed | 1.21 | 0.81 | 0.714 | 0.721 | 0.466 | 0.318 | 0.282 | 0.663 | 0.775
W fixed | 1.21 | 1.03 | 1.33 | 0.959 | 0.743 | 0.425 | 0.709 | 0.86 | 1.2
Y fixed | 1.25 | 1.28 | 1.16 | 0.912 | 1 | 0.4 | 0.486 | 0.952 | 0.871
pThr fixed | 1.64 | 1.88 | 1.62 | 2.88 | 0.451 | 0.325 | 0.406 | 0.697 | 0.68
pTyr fixed | 1.68 | 1.25 | 1.53 | 1.57 | 0.898 | 0.392 | 0.539 | 0.698 | 0.747

PDK1, construct: Full length, human (from UniProt Q15118)
relative phosphorylation
Settings | at +1 | at +2 | at +3 | at +4 | at -1 | at -2 | at -3 | at -4 | at -5
A fixed | 0.64 | 0.794 | 0.777 | 0.904 | 1.25 | 0.94 | 0.972 | 0.989 | 0.951
D fixed | 0.63 | 1.03 | 1.5 | 1.01 | 1.58 | 0.752 | 0.799 | 0.88 | 0.943
E fixed | 0.568 | 0.888 | 1.1 | 0.856 | 0.681 | 0.7 | 0.677 | 0.818 | 0.881
F fixed | 1.18 | 1.15 | 1.64 | 1.17 | 1.04 | 1.26 | 1.28 | 1.18 | 1.24
G fixed | 0.641 | 1.71 | 1.08 | 1.05 | 1.11 | 1.42 | 0.928 | 1.14 | 1.12
H fixed | 0.804 | 1.09 | 0.87 | 1.06 | 1.25 | 1.26 | 1.08 | 0.957 | 1.1
I fixed | 2.06 | 0.767 | 0.932 | 1 | 0.793 | 0.852 | 1.1 | 0.962 | 0.945
K fixed | 0.624 | 0.808 | 0.622 | 0.794 | 0.655 | 0.704 | 0.77 | 0.832 | 0.824
L fixed | 2.3 | 0.889 | 0.883 | 0.884 | 0.924 | 1.02 | 1.07 | 0.982 | 1.05
M fixed | 1.34 | 0.989 | 1.02 | 1 | 0.976 | 1.08 | 1.12 | 1.19 | 1.1
N fixed | 0.625 | 0.935 | 0.809 | 1.02 | 1.29 | 0.787 | 0.867 | 0.878 | 0.981
P fixed | 0.607 | 0.902 | 1.1 | 1.08 | 0.864 | 0.799 | 0.912 | 1.02 | 0.722
Q fixed | 0.727 | 1.04 | 0.803 | 0.884 | 0.801 | 0.869 | 0.852 | 0.883 | 0.679
R fixed | 0.728 | 1.11 | 0.897 | 0.967 | 0.751 | 0.986 | 0.851 | 0.988 | 0.95
V fixed | 1.28 | 0.813 | 0.948 | 0.926 | 0.823 | 0.83 | 0.94 | 0.831 | 0.917
W fixed | 1.25 | 1.08 | 1.03 | 1.38 | 1.21 | 1.73 | 1.78 | 1.47 | 1.6
Y fixed | 1.18 | 1.15 | 1.64 | 1.17 | 1.04 | 1.26 | 1.28 | 1.18 | 1.24
pThr fixed | 0.538 | 0.662 | 0.863 | 0.876 | 0.572 | 0.524 | 0.666 | 0.846 | 0.933
pTyr fixed | 0.723 | 0.951 | 0.689 | 0.919 | 0.694 | 0.892 | 0.885 | 1.2 | 1.05
